B1: X203: mouse anti-mouse IL-11 IgG (IgG1κ), neutralising; VH SEQ ID NO:22, VL SEQ ID NO:23 (antibody, V domains shown)
VH: EVQLQQSGPELVKPGASVKIPCKASGYTFTDYNMDWVKQSHGKSLEWIGDINPHNGGPIYNQKFTGKATLTVDKSSSTAYMELRSLTSEDTAVYYCARGELGHWYFDVWGTGTTVTVSS
VL: DIVLTQSPASLAVSLGQRATISCRASKSVSTSGYSYIHWYQQKPGQPPKLLIYLASNLDSGVPARFSGSGSGTDFTLNIHPVEEEDAATYYCQHSRDLPPTFGGGTKLEIK
modifications: Enx203 VH; Enx203 VL
B2: X209: mouse anti-mouse IL-11Rα IgG (IgG1κ), neutralising; VH SEQ ID NO:24, VL SEQ ID NO:25 (antibody, V domains shown)
VH: QVQLQQPGAELVRPGSSVKLSCKASGYTFTNYWMHWLKQRPVQGLEWIGNIGPSDSKTHYNQKFKDKATLTVDKSSSTAYMQLNSLTSEDSAVYYCARGDYVLFTYWGQGTLVTVSA
VL: DIVLTQSPATLSLSPGERATLSCRASQSISNNLHWYQQKSHEAPRLLIKYASQSISGIPARFSGSGSGTDFTLSFSSLETEDFAVYFCQQSYSWPLTFGQGTKLEIK
modifications: Enx209 VH; Enx209 VL

What was measured:
HFMCD-fed mice [1] = assay: HFMCD diet model of cachexia-related weight loss; format: in vivo, mouse
Description: High fat methionine choline deficient diet (HFMCD) was used to establish cachexia-like metabolic disorder. In order to establish cachexia weight loss and lean mass loss, C57BL/6N mice were fed with methionine and choline deficient (HFMCD) diet supplemented with 60 kcal % fat (A06071301B, Research Diets).
Five-week old male mice were fed a methionine- and choline-deficient (MCD) diet with 60 kcal % fat (A06071301B, Research Diets), designated a high fat MCD (HFMCD) diet, which causes more severe NASH than an MCD diet alone. Control mice were fed with normal chow (NC; Specialty Feeds). Mice were intraperitoneally injected twice per week with 10 mg/kg of anti-IL-11 antibody or anti-IL-11 RA antibody, or identical concentration of IgG isotype control one week after they had received HFMCD for the same treatment duration. Body weight was measured weekly.
To investigate further the effect of inhibition of IL-11-mediated signalling with respect to cachexia, a range of doses of anti-IL-11 therapy were studied in the MCD model. Five-week old male mice were fed on the HFMCD or NC diet as before for one week to induce cachexia, resulting in a ˜15% loss in body weight in MCD mice. After the initial week, mice were intraperitoneally injected twice per week with 0.5, 1, 5 or 10 mg/kg of anti-IL-11 or anti-IL-11 RA antibody. Three antibodies were studied: two anti-IL-11 ((1) and (2)), and one anti-IL-11 RA. 10 mg/kg of IgG isotype antibody was used as a control.
Body weight and food consumption were measured weekly. For food consumption, average food intake was measured (g/mouse/week) in food hoppers from cages (n=3 mice per cage).

HFMCD-fed mice [2] = assay: Early-stage HFMCD NASH, antibody from week 1; format: in vivo, mouse; details: for development of fibrosis / lipid droplets in livers: HFMCD, 10 mg/kg biweekly from week 1; for hepatic lipid metabolism (lipogenesis and β-oxidation gene expression): RNA-seq, compared to IgG
Protocol: FIGS. 22A to 22K. Neutralisation of Il-11 signalling reverses liver damage in early stage NASH. (A) Relative liver mRNA expression of fibrosis and inflammation markers from mice fed with NC or HFMCD diets for the indicated time points. (B) Schematic of the anti-IL-11 therapy experiment early on in the HFMCD diet NASH model. Antibody treatments were started 1 week after the start of NASH diet when X209, X203, or IgG (10 mg/kg, biweekly) were administered intraperitoneally for 5 weeks. (C) Representative gross liver images and (D) Masson's Trichrome stained images of livers (scale bars, 100 μm) after 5 weeks of IgG or X209 treatments. (E) Hepatic triglyceride levels (n≥5/group), (F) liver hydroxyproline content of X209- and IgG-treated mice (n≥5/group), (G) serum ALT levels (n≥5/group). (H) Immunofluorescence images of IL6R and IL11RA expression in hepatocytes (scale bars, 100 μm). Dose-dependent effect of (I) IL-11 on ALT in hepatocyte supernatant and (J) stress fibers formation (rhodamine-phalloidin staining) in hepatocyte (scale bars, 200 μm). (K) IL-11 protein is secreted from primary human hepatocytes stimulated with TGFβ1 (5 ng/ml); 24 h. (E) Data are shown as box-and-whisker with median (middle line), 25th-75th percentiles (box) and min-max percentiles (whiskers); (F-G,I,K) data are shown as mean±s.d. (E) Tukey-corrected Student's t-test; (F,G) two-way ANOVA; (I,K) two-tailed Dunnett's test. FC: fold change; NC: normal chow; HFMCD: high fat methionine- and choline-deficient.
High fat methionine and choline-deficient (HFMCD) diet fed wild-type mice Five week old male C57BL/6N mice were fed with Methionine and Choline deficient diet supplemented with 60 kcal % fat (A060713011316, Research Diets); control mice were fed with normal chow (NC, Specialty Feeds). Durations of diet and antibody therapies are described.
Immune cells were isolated from liver as described previously 20. Liver tissues were minced and digested with 100 μg/ml Collagenase IV and 20 U/ml DNase I, at 37° C. for 1 h. Following digestion, cells were passed through strainer to obtain single cell suspension and subjected to percoll gradient centrifugation for isolation of immune cells. CyTOF staining was performed as previously described 21. Cells were thawed and stained with cisplatin (Fluidigm) to identify live cells, followed by staining with metal-conjugated CD45 antibody, for barcoding purpose. After barcoding, cells were stained with metal-conjugated cell surface antibody (Ly6C). Cells were then fixed with 1.6% PFA, permeabilized with 100% methanol, and subjected to intracellular antibody staining (TGFβ1). Cells were labeled with DNA intercalator before acquisition on Helios mass cytometer (Fluidigm). For analysis, first live single cells were identified, followed by debarcoding to identify individual samples. Manual gating was performed using Flowjo software (Flowjo).

[3] = 0.5, 1, 5 or 10 mg/kg twice per week

| Molecule | body weight (HFMCD-fed mice [1]; 10 mg/kg twice per week from week 1, listed as anti-IL-11, 10 mg/kg) | development of fibrosis (HFMCD-fed mice [2]) | lipid droplets in livers (HFMCD-fed mice [2]) | hepatic lipid metabolism (lipogenesis and β-oxidation gene expression) (HFMCD-fed mice [2]) | body weight (HFMCD-fed mice [1]; 10 mg/kg twice per week from week 1, listed as anti-IL-11 RA, 10 mg/kg) | body weight (HFMCD-fed mice [1]; 10 mg/kg twice per week from week 1, listed as anti-IL-11Rα, 10 mg/kg) | body weight (HFMCD-fed mice [1]; [3]) | food consumption (HFMCD-fed mice [1]; [3]) | circulating TGFβ1 levels (HFMCD-fed mice [2]; HFMCD diet) | Ly6C+veTGFβ1+ve cells (HFMCD-fed mice [2]; during steatohepatitis, CyTOF) | immune cells in liver (HFMCD-fed mice [2]; during steatohepatitis, CyTOF) |
| --- | --- | --- | --- | --- | --- | --- | --- | --- | --- | --- | --- |
| B1 | quickly regained weight and returned to normal, or near-normal, weight by 5 weeks later | nor did these mice develop fibrosis | not seen | improved hepatic lipid metabolism |  |  |  |  |  |  |  |
| B2 |  | nor did these mice develop fibrosis | not seen | more so than X203, improved hepatic lipid metabolism | quickly regained weight and returned to normal, or near-normal, weight by 5 weeks later | returned to normal or near-normal weight | most effective in reversing weight loss | greatest increase in food intake | reduced | specific reduction | fewer immune cells |

From patent US11813311B2, “Treatment and prevention of metabolic diseases” (Singapore Health Services PTE LTD., priority 2019, dated 2023)
